Assay results taken from patent US20070231333A1, “ANTI-5T4 ANTIBODIES AND USES THEREOF” (Wyeth, priority 2006, published 2007).

Tests used:
human 5T4 antigen [1] = molecular target: T1, human 5T4 antigen (Homo sapiens, UniProt Q13641); assay: BIACORE analysis of antibody binding to human 5T4 antigen immobilized on a CM5 chip; conditions: chimeric and humanized antibodies, Table 12
T1 sequence (Q13641 32-420): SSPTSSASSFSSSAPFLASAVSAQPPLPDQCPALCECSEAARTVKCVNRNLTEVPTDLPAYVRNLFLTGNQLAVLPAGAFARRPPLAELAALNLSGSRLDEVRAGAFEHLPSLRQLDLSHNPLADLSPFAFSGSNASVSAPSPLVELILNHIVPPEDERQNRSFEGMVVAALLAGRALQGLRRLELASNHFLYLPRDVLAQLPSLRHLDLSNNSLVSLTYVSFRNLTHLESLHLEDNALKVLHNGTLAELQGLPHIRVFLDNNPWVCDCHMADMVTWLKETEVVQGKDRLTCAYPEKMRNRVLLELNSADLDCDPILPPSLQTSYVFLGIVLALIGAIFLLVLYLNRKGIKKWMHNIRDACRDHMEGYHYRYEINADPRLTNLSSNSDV
Description: To assess the binding specificity and affinity of the A1, A2, and A3 antibodies, BIACORE® analysis was performed using human 5T4 antigen immobilized on a CM5 chip. BIACORE® technology utilizes changes in the refractive index at the surface layer upon binding of the antibody to the 5T4 antigen immobilized on the layer. Binding is detected by surface plasmon resonance (SPR) of laser light refracting from the surface. Analysis of the signal kinetics on rate and off rate allows discrimination between non-specific and specific interactions. The H8 anti-5T4 antibody was used as a control. H8 is a hybridoma-generated monoclonal mouse IgG1 antibody described in PCT International Publication No. WO 98/55607 and in Forsberg et al. (1997) J. Biol. Chem. 272(19):[…].
To assess the binding specificity and affinity of the chimeric and humanized H8, A1, A2, and A3 antibodies, BIACORE® analysis was performed using human 5T4 antigen immobilized on a CM5 chip. See Example 2.

human 5T4 antigen [2] = molecular target: T1, human 5T4 antigen; assay: BIACORE competition assay: second antibody after saturation with first antibody; format: binding
Description: Epitope mapping of the H8, A1, A2, and A3 antibodies was also performed using BIACORE® using a CM5 chip with bound human 5T4 antigen. The chip was saturated with H8, A1, A2, or A3 antibody, and a first response was measured. The chip was then saturated with a second antibody from among the H8, A1, A2, and A3 antibodies, and a second response was measured. For multiple experiments, the chip was regenerated by dissociation of the bound antibodies in 10 mM glycine, pH 1.5, followed by a buffer wash. The percentages shown are the response units measured upon binding by a second antibody directly to the CM5 chip divided by the response units measured upon binding of the second antibody to a CM5 chip saturated with a first antibody.
The epitopes bound by the H8 and A3 antibodies are sterically close to each other such that the rate of association with antigen is decreased when binding of H8 is assayed in the presence of A3, and vice versa. Similar results were obtained using the chimeric and humanized H8, A1, A2, and A3 antibodies, which were prepared as described in Example 7 herein below.

[3] = test system: black-tailed marmoset 5T4 ectodomain/Fc fusion protein; assay: Cross-species reactivity ELISA, 5T4 ectodomain/Fc fusion proteins; format: binding; parameters: key: +: binding; −: no binding; +/−: partial binding
Description: (§1) The cross-species reactivity of anti-5T4 antibodies disclosed herein was assayed to determine relevant species for in vivo efficacy studies and toxicology analysis. Correlation of binding activity and relatedness of the different 5T4 ectodomains was also used to further describe the epitope bound by each antibody. Binding assays were performed using 5T4 ectodomains from various species fused to human IgG1 Fc. To assay binding of anti-5T4 antibodies, 5T4 ectodomain/Fc fusion proteins were transiently transfected into COS-1 cells, and ELISA assays were performed. Non-relevant human IgG4 and IgG1 antibodies were used as controls.

[4] = molecular target: T2, mouse 5T4 ectodomain/Fc fusion protein (Mus musculus, UniProt Q9Z0L0); assay: as above; format: binding; parameters: key: +: binding; −: no binding; +/−: partial binding
T2 construct: prepared using mouse 5T4 (amino acids 1-361); human IgG1 Fc; made in house; host or cells: COS-1 cells (transient transfection)
T2 sequence (Q9Z0L0 32-361): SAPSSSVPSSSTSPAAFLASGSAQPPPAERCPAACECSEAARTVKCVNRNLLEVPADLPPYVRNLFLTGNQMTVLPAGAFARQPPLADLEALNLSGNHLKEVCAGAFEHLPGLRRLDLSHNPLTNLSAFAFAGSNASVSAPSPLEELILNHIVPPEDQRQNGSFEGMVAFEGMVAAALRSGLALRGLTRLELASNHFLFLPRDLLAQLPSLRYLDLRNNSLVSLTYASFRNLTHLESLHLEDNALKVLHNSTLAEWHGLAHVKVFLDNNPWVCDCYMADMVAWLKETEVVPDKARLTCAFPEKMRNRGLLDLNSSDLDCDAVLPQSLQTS
Description: as §1

[5] = molecular target: T3, rat 5T4 ectodomain/Fc fusion protein (Rattus norvegicus, UniProt Q5PQV5); assay: as above; format: binding; parameters: key: +: binding; −: no binding; +/−: partial binding
T3 construct: rat 5T4 (amino acids 1-361); human IgG1 Fc; made in house; host or cells: COS-1 cells (transient transfection)
T3 sequence (Q5PQV5 32-361): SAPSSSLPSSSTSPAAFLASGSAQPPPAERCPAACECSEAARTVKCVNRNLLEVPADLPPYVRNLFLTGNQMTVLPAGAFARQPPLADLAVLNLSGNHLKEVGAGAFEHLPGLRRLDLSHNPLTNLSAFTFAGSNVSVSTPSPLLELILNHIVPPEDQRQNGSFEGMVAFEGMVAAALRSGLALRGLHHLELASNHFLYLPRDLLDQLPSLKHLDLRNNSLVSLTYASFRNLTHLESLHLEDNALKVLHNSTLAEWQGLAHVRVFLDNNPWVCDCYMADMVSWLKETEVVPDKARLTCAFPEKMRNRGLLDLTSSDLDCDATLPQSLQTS
Description: as §1

black-tailed marmoset 5T4 ectodomain/Fc fusion protein, sequence (as listed by the source): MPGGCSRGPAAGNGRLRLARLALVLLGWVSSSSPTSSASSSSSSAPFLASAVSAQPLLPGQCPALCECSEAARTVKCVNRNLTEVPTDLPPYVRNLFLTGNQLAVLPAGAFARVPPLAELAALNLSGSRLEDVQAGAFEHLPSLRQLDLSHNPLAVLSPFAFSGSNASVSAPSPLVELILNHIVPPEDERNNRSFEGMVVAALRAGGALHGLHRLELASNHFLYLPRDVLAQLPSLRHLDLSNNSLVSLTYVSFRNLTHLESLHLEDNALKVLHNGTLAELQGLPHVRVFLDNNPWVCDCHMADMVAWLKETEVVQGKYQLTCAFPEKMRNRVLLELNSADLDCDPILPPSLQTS

B1: chimeric A3: chimeric A3 antibody: murine A3 variable regions, human IgG4 heavy chain and human kappa light chain constant regions (antibody, V domains shown)
VH: EVQLVESGGGLVQPKGSLKLSCAASGFTFNTYAMNWVRQAPGKGLEWVARIRSKSNNYATYYADSVKDRFTISRDDSQSMLYLQMNNLKTEDTAMYCCVRQWDYDVRAMNYWGQGTSVTVSS
VL: DIVMTQSHIFMSTSVGDRVSITCKASQDVDTAVAWYQQKPGQSPKLLIYWASTRLTGVPDRFTGSGSGTDFTLTISNVQSEDLADYFCQQYSSYPYTFGGGTKLEIK
KA (1/M) (human 5T4 antigen [1]): ˜5.4 × 10^9 1/M | ka (1/Ms) (human 5T4 antigen [1]): ˜5.4 × 10^4 1/Ms | kd (1/s) (human 5T4 antigen [1]): ˜1.0 × 10^−5 1/s | Percentage of Second Antibody Bound Following Saturation With First Antibody (human 5T4 antigen [2]; first antibody chimeric A1, 19 seconds after injection of second antibody): 82.1% | Percentage of Second Antibody Bound Following Saturation With First Antibody (human 5T4 antigen [2]; first antibody chimeric A1, 37.5 seconds after injection of second antibody): 82.0% | Percentage of Second Antibody Bound Following Saturation With First Antibody (human 5T4 antigen [2]; first antibody chimeric A1, 75 seconds after injection of second antibody): 84.5% | Percentage of Second Antibody Bound Following Saturation With First Antibody (human 5T4 antigen [2]; first antibody chimeric A1, 150 seconds after injection of second antibody): 87.8% | Percentage of Second Antibody Bound Following Saturation With First Antibody (human 5T4 antigen [2]; first antibody chimeric A1, 300 seconds after injection of second antibody): 90.8% | Percentage of Second Antibody Bound Following Saturation With First Antibody (human 5T4 antigen [2]; first antibody chimeric A1, 600 seconds after injection of second antibody): 92.8% | Percentage of Second Antibody Bound Following Saturation With First Antibody (human 5T4 antigen [2]; first antibody chimeric A2, 19 seconds after injection of second antibody): 92.2% | Percentage of Second Antibody Bound Following Saturation With First Antibody (human 5T4 antigen [2]; first antibody chimeric A2, 37.5 seconds after injection of second antibody): 88.6% | Percentage of Second Antibody Bound Following Saturation With First Antibody (human 5T4 antigen [2]; first antibody chimeric A2, 75 seconds after injection of second antibody): 89.5% | Percentage of Second Antibody Bound Following Saturation With First Antibody (human 5T4 antigen [2]; first antibody chimeric A2, 150 seconds after injection of second antibody): 91.5% | Percentage of Second Antibody Bound Following Saturation With First Antibody (human 5T4 antigen [2]; first antibody chimeric A2, 300 seconds after injection of second antibody): 93.4% | Percentage of Second Antibody Bound Following Saturation With First Antibody (human 5T4 antigen [2]; first antibody chimeric A2, 600 seconds after injection of second antibody): 94.6% | cross-reactivity (binding class) [3]: − | cross-reactivity (binding class) [4]: − | cross-reactivity (binding class) [5]: −
